According to patent US20260217863:
Substitutions are numbered along the chain they refer to.

Key:
[1] = molecular target: T1, Fv-2, expressed soluble Fv antibody of clone 23 (His-tag-TdTomato-VH)
T1 chain: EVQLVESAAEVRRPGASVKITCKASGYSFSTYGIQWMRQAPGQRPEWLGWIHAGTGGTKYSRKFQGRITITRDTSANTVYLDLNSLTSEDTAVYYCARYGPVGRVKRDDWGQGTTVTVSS

[2] = molecular target: T2, Fv-1, expressed soluble Fv antibody of clone 5 (His-tag-TdTomato-VH)
T2 chain: T1 chain with Y99C, V102D, G103S, R104D, K106M, R107T, D109F

[3] = molecular target: Fv-3, expressed soluble Fv antibody of clone 39 (His-tag-TdTomato-VH)

B1: Ribonuclease A (Type II-A) from bovine pancreas (protein)
chain: KETAAAKFERQHMDSSTSAASSSNYCNQMMKSRNLTKDRCKPVNTFVHESLADVQAVCSQKNVACKNGQTNCYQSYSTMSITDCRETGSSKYPNCAYKTTQANKHIIVACEGNPYVPVHFDASV
cleavage of HeLa total RNA by RNase A (0.7 µg/ml), agarose gel, Fv antibody at 10 µM [1]: it was observed that the cleavage reaction of RNase A was completely inhibited
stated: RNase A removed from the solution by Fv-2-beads (RNA cleavage read on an agarose gel) [1]: After Fv-Bead treatment: all four lanes (+ to ++++, + : 250 ng Fv-2-bead, RNase A 10 ng) keep both RNA bands (in the dashed box at about 1000-1500 bp and near 600 bp) like lane 0, marked 'RNA cleavage inhibition'. Before treatment (no bead) the four RNase A lanes have no band in the box.
cleavage of HeLa total RNA by RNase A (0.7 µg/ml), agarose gel, Fv antibody at 10 µM [2]: it was observed that the cleavage reaction of RNase A was completely inhibited
stated: RNase A removed from the solution by Fv-1-beads (RNA cleavage read on an agarose gel) [2]: After Fv-Bead treatment: all four lanes (+ to ++++, + : 250 ng Fv-1-bead, RNase A 10 ng) keep faint RNA in the dashed box at about 1000-1500 bp like lane 0, marked 'RNA cleavage inhibition'. Before treatment (no bead) the four RNase A lanes show only a smear near 250 bp.
cleavage of HeLa total RNA by RNase A (0.7 µg/ml), agarose gel, Fv antibody at 10 µM [3]: it was observed that the cleavage reaction of RNase A was completely inhibited
